Test: Drug-release assay of nanoparticle-conjugated linker-payloads under cleavage conditions (Cat-B, redox-responsive or pH-sensitive cleaving study), RP-HPLC
Assay type: in vitro ADME
Conditions: linker-payload conjugated to DBCO-functionalized silica nanoparticle, 37° C., 24 hours
Procedure: To assess the drug releasing profile of exemplary linker-drug conjugates, the linker-drug conjugates were each conjugated to a DBCO-functionalized ultrasmall silica nanoparticle via a click chemistry reaction between the azide groups on the linker-drug conjugate precursors and the dibenzocyclooctyne (DBCO) groups of the nanoparticles. The resulting drug-nanoparticle-conjugates were then incubated under the desired releasing conditions for release kinetics tests.
The amount of released drugs vs non-released drugs was measured using reverse phase HPLC by analyzing the area under curve (AUC) (FIG. 10A and FIG. 10B).
General Method: A Waters Xbridge Peptide BEH C18 column with 4.6 mm×50 mm dimensions, a particle size of 5 μm, and a pore size of 300 A was used (part number 186003622). Acetonitrile (VWR HiPerSolv Chromanorm, UHPLC Grade) was used as received without further preparation, […] trifluoroacetic acid in deionized water was prepared by adding 1 mL of trifluoroacetic acid (HPLC grade, Millipore-Sigma) into 999 mL 18.2 MΩ·cm deionized water that was generated using an IQ7000 Millipore deionized water system and passed through a 0.2 μm filter before use. The seal wash used for the system was composed of 90% 18.2 MΩ·cm deionized water and 10% methanol (HPLC grade, VWR). The injection needle was washed using a mixture of 25 vol % 18.2 MΩ·cm deionized water, 25 vol % acetonitrile, 25 vol % methanol, and 25 vol % 2-propanol. Samples were prepared in a concentration range of 0.25 to 2 μM and the injection volume ranges from 60 μL to 10 μL, respectively. Higher sample concentration can be used if detector signal is low. Vials used for all injections are fresh Waters Total Recovery vials with screw caps that have pre-slit PTFE septa (part number 186000385C).
Method for Protease-cleavable and Redox-responsive Linkers: Before any sample injections were started, the PDA lamp was turned on and allowed to warm up for at least 30 minutes. The system and column were equilibrated with 95% 0.01% TFA in deionized water, 5% acetonitrile for at least 10 minutes at a flow rate of 1.0 mL/min after the PDA lamp had warmed up. Two blank injections, with injection volumes of 10 μL containing only 18.2 MΩ·cm deionized water, were performed before the injection of any samples for analysis. The gradient used to elute protease-cleavable and redox-sensitive linkers conjugated to hybrid silica nanoparticles, and their components began at 95% 0.01% TFA in deionized water and 5% acetonitrile and linearly changed to 15% 0.01% TFA in deionized water, 85% acetonitrile over 8 minutes. Acetonitrile composition was increased to 95% over an additional minute and held at 95% for an additional 2 minutes to ensure that any strongly retained compounds are eluted. The composition of the solvent was then changed back to the starting composition of the gradient over an additional minute and allowed to equilibrate for 3 minutes before another injection began. Between sample injections a blank injection was run to ensure that no carryover occurred.
Method for pH-sensitive Linkers: Before any sample injections were started, the PDA lamp was turned on and allowed to warm up for at least 30 minutes. A gradient of pure deionized water and acetonitrile was used, all other consumables including column and vials were the same as for the method to purify Cat-B sensitive and redox-responsive linkers elaborated on above. Briefly the gradient composition began at 95% deionized water and 5% acetonitrile at a flow rate of 1.0 mL/min (not changed throughout the method). The composition was changed from this starting composition to 15% deionized water and 85% acetonitrile over a 12-minute period, during which the retained drug-linkers, released drug, free drug linker, and any other impurities eluted. At the 12-minute mark the composition was rapidly changed to 5% deionized water and 95% acetonitrile over the course of one minute. […]

Row | SMILES | % of Payload Release in 24 Hours Under Cleavage Conditions
1 | CCc1c2c(nc3ccc(OC(C(=O)OC)c4ccc(NC(=O)[C@H](CCCNC(N)=O)NC(=O)[C@@H](NC(=O)CCOCCOCCOCCOCCOCCN=[N+]=[N-])C(C)C)cc4)cc13)-c1cc3c(c(=O)n1C2)COC(=O)[C@]3(O)CC (stereo partly drawn) [Example 12, methyl 2-(4-((20S,23S)-1-azido-20-isopropyl-18,21-dioxo-23-(3-ureidopropyl)-3,6,9,12,15-pentaoxa-19,22-diazatetracosan-24-amido)phenyl)-2-(((S)-4,11-diethyl-4-hydroxy-3,14-dioxo-3,4,12,14-tetrahydro-1H-pyrano[3′,4′:6,7]indolizino[1,2-b]quinolin-9-yl)oxy)acetate] | + (‘+’ indicates 5-25% release)
2 | CC[C@@]1(O)C(=O)OCc2c1cc1n(c2=O)Cc2c-1nc1cc(F)c(C)c3c1c2[C@@H](NC(=O)C(=O)c1ccc(NC(=O)[C@H](CCCNC(N)=O)NC(=O)[C@@H](NC(=O)CCOCCOCCOCCOCCOCCOCCN=[N+]=[N-])C(C)C)cc1)CC3 [Example 24, 1-azido-N-((S)-1-(((S)-1-((4-(2-(((1S,9S)-9-ethyl-5-fluoro-9-hydroxy-4-methyl-10,13-dioxo-2,3,9,10,13,15-hexahydro-1H,12H-benzo[de]pyrano[3′,4′:6,7]indolizino[1,2-b]quinolin-1-yl)amino)-2-oxoacetyl)phenyl)amino)-1-oxo-5-ureidopentan-2-yl)amino)-3-methyl-1-oxobutan-2-yl)-3,6,9,12,15,18-hexaoxahenicosan-21-amide] | + (‘+’ indicates 5-25% release)
3 | CCc1c2c(nc3ccc(OCCCNC(=O)OCc4ccc(NC(=O)[C@H](CCCCN)NC(=O)[C@H](Cc5c[nH]c6ccccc56)NC(=O)CCOCCOCCOCCOCCOCCOCCOCCOCCOCCN=[N+]=[N-])cc4)cc13)-c1cc3c(c(=O)n1C2)COC(=O)[C@]3(O)CC [Example 32, 4-((32S,35S)-32-((1H-indol-3-yl)methyl)-35-(4-aminobutyl)-1-azido-30,33-dioxo-3,6,9,12,15,18,21,24,27-nonaoxa-31,34-diazahexatriacontan-36-amido)benzyl (3-(((S)-4,11-diethyl-4-hydroxy-3,14-dioxo-3,4,12,14-tetrahydro-1H-pyrano[3′,4′:6,7]indolizino[1,2-b]quinolin-9-yl)oxy)propyl)carbamate] | + (‘+’ indicates 5-25% release)
4 | CC[C@@]1(O)C(=O)OCc2c1cc1n(c2=O)Cc2c-1nc1cc(F)c(C)c3c1c2[C@@H](NC(=O)OCc1ccc(NC(=O)[C@H](CCCNC(N)=O)NC(=O)[C@@H](NC(=O)CCCCCCN=[N+]=[N-])C(C)C)cc1)CC3 [Example 30, 4-((S)-2-((S)-2-(7-Azidoheptanamido)-3-methylbutanamido)-5-ureidopentanamido)benzyl ((1S,9S)-9-ethyl-5-fluoro-9-hydroxy-4-methyl-10,13-dioxo-2,3,9,10,13,15-hexahydro-1H,12H-benzo[de]pyrano[3′,4′:6,7]indolizino[1,2-b]quinolin-1-yl)carbamate] | ++ (‘++’ indicates 26-50% release)
5 | CC[C@@]1(O)C(=O)OCc2c1cc1n(c2=O)Cc2c-1nc1cc(F)c(C)c3c1c2[C@@H](NC(=O)C(O)c1ccc(NC(=O)[C@H](CCCCN)NC(=O)[C@H](Cc2ccccc2)NC(=O)CCOCCOCCOCCOCCOCCOCCN=[N+]=[N-])cc1)CC3 (single isomer, unassigned) [Example 29-Peak 1] | +++ (‘+++’ indicates 51-75% release)
6 | CCc1c2c(nc3ccc(OCCCNC(=O)OCc4ccc(NC(=O)[C@H](CCCNC(N)=O)NC(=O)[C@@H](NC(=O)CCOCCOCCOCCOCCOCCN=[N+]=[N-])C(C)C)cc4)cc13)-c1cc3c(c(=O)n1C2)COC(=O)[C@]3(O)CC [Example 15, 4-((20S,23S)-1-azido-20-isopropyl-18,21-dioxo-23-(3-ureidopropyl)-3,6,9,12,15-pentaoxa-19,22-diazatetracosan-24-amido)benzyl (3-(((S)-4,11-diethyl-4-hydroxy-3,14-dioxo-3,4,12,14-tetrahydro-1H-pyrano[3′,4′:6,7]indolizino[1,2-b]quinolin-9-yl)oxy)propyl)carbamate] | ++ (‘++’ indicates 26-50% release)
7 | CCc1c2c(nc3ccc(OC(C(=O)OC)c4ccc(NC(=O)[C@H](CCCNC(N)=O)NC(=O)[C@@H](NC(=O)CCOCCOCCOCCOCCOCCOCCOCCOCCOCCN=[N+]=[N-])C(C)C)cc4)cc13)-c1cc3c(c(=O)n1C2)COC(=O)[C@]3(O)CC (stereo partly drawn) [Example 13-R isomer, Methyl 2-(4-((32S,35S)-1-azido-32-isopropyl-30,33-dioxo-35-(3-ureidopropyl)-3,6,9,12,15,18,21,24,27-nonaoxa-31,34-diazahexatriacontan-36-amido)phenyl)-2-(((S)-4,11-diethyl-4-hydroxy-3,14-dioxo-3,4,12,14-tetrahydro-1H-pyrano[3′,4′:6,7]indolizino[1,2-b]quinolin-9-yl)oxy)acetate] | + (‘+’ indicates 5-25% release)
8 | CC[C@@]1(O)C(=O)OCc2c1cc1n(c2=O)Cc2c-1nc1cc(F)c(C)c3c1c2[C@@H](NCc1ccc(NC(=O)[C@H](CCCNC(N)=O)NC(=O)[C@@H](NC(=O)CCOCCOCCOCCOCCOCCOCCOCCOCCOCCN=[N+]=[N-])C(C)C)cn1)CC3 [Example 46, 1-azido-N-((S)-1-(((S)-1-((6-((((1S,9S)-9-ethyl-5-fluoro-9-hydroxy-4-methyl-10,13-dioxo-2,3,9,10,13,15-hexahydro-1H,12H-benzo[de]pyrano[3′,4′:6,7]indolizino[1,2-b]quinolin-1-yl)amino)methyl)pyridin-3-yl)amino)-1-oxo-5-ureidopentan-2-yl)amino)-3-methyl-1-oxobutan-2-yl)-3,6,9,12,15,18,21,24,27-nonaoxatriacontan-30-amide] | + (‘+’ indicates 5-25% release)
9 | CC[C@@]1(O)C(=O)OCc2c1cc1n(c2=O)Cc2c-1nc1cc(F)c(C)c3c1c2[C@@H](NC(=O)OCc1ccc(NC(=O)[C@H](CCCCN)NC(=O)[C@H](Cc2ccccc2)NC(=O)CCOCCOCCOCCOCCOCCOCCOCCOCCOCCOCCN=[N+]=[N-])cc1)CC3 [Example 26, 4-((35S,38S)-38-(4-aminobutyl)-1-azido-35-benzyl-33,36-dioxo-3,6,9,12,15,18,21,24,27,30-decaoxa-34,37-diazanonatriacontan-39-amido)benzyl ((1S,9S)-9-ethyl-5-fluoro-9-hydroxy-4-methyl-10,13-dioxo-2,3,9,10,13,15-hexahydro-1H,12H-benzo[de]pyrano[3′,4′:6,7]indolizino[1,2-b]quinolin-1-yl)carbamate] | + (‘+’ indicates 5-25% release)
10 | CCc1c2c(nc3ccc(OCCCSSC(C)(C)CNC(=O)CCOCCOCCOCCOCCOCCOCCOCCOCCOCCOCCOCCN=[N+]=[N-])cc13)-c1cc3c(c(=O)n1C2)COC(=O)[C@]3(O)CC [Example 56, (S)-1-azido-N-(2-((3-((4,11-diethyl-4-hydroxy-3,14-dioxo-3,4,12,14-tetrahydro-1H-pyrano[3′,4′:6,7]indolizino[1,2-b]quinolin-9-yl)oxy)propyl)disulfanyl)-2-methylpropyl)-3,6,9,12,15,18,21,24,27,30,33-undecaoxahexatriacontan-36-amide] | + (‘+’ indicates 5-25% release)
11 | CCc1c2c(nc3ccc(OCc4c(F)cc(NC(=O)[C@H](CCCNC(N)=O)NC(=O)[C@@H](NC(=O)CCOCCOCCOCCOCCOCCOCCOCCOCCOCCN=[N+]=[N-])C(C)C)cc4F)cc13)-c1cc3c(c(=O)n1C2)COC(=O)[C@]3(O)CC [Example 21, 1-Azido-N-((S)-1-(((S)-1-((4-((((S)-4,11-diethyl-4-hydroxy-3,14-dioxo-3,4,12,14-tetrahydro-1H-pyrano[3′,4′:6,7]indolizino[1,2-b]quinolin-9-yl)oxy)methyl)-3,5-difluorophenyl)amino)-1-oxo-5-ureidopentan-2-yl)amino)-3-methyl-1-oxobutan-2-yl)-3,6,9,12,15,18,21,24,27-nonaoxatriacontan-30-amide] | + (‘+’ indicates 5-25% release)
